Results reported in patent US20250026836A1.

Legend:
[1] = target: HLA-G1 isoform expressed on Expi293F cells (human) (UniProt P17693); experiment: flow cytometry on Expi293F cells transfected with HLA-G1, antibody 10 µg/ml
[2] = target: HLA-G2 isoform expressed on Expi293F cells (human) (UniProt P17693); experiment: flow cytometry on Expi293F cells transfected with HLA-G2, antibody 10 µg/ml
[3] = target: HLA-G3 isoform expressed on Expi293F cells (human) (UniProt P17693); experiment: flow cytometry on Expi293F cells transfected with HLA-G3, antibody 10 µg/ml
[4] = target: HLA-G4 isoform expressed on Expi293F cells (human) (UniProt P17693); experiment: flow cytometry on Expi293F cells transfected with HLA-G4, antibody 10 µg/ml
[5] = target: HLA-G1 isoform expressed on Expi293F cells (human) (UniProt P17693); experiment: flow cytometry on Expi293F cells transfected with HLA-G1, negative control staining
[6] = target: HLA-G2 isoform expressed on Expi293F cells (human) (UniProt P17693); experiment: flow cytometry on Expi293F cells transfected with HLA-G2, negative control staining
[7] = target: HLA-G4 isoform expressed on Expi293F cells (human) (UniProt P17693); experiment: flow cytometry on Expi293F cells transfected with HLA-G4, negative control staining
[8] = target: HLA-G2 isoform expressed on Expi293F cells (human) (UniProt P17693); experiment: flow cytometry on Expi293F cells transfected with HLA-G2, negative control staining; same profile as the HLA-G2 row of FIG. 5A, drawn larger

% of the cells stained [1] [%]	% of the cells stained [2] [%]	% of the cells stained [3] [%]	% of the cells stained [4] [%]	% (positive cells) [5] [%]	% (positive cells) [6] [%]	% (positive cells) [7] [%]	% (positive cells) [8] [%]	Substance
81	34	67	16	–	–	–	–	commercial Mouse anti-HLA-G antibody 4H84 (Abcam, Mouse IgG1)
–	–	–	–	1	1	2	1	2nd Ab (neg CTRL) (antibody)
